Biological target: ferredoxin isoform 2 from Arabidopsis thaliana (Arabidopsis thaliana) (UniProt P16972)
Assay: NMR titration; 15N HSQC of labelled ferredoxin with purified FusA added at varying stoichiometry up to 1:1; buffer with 0.1% LDAO, sodium phosphate; 600 MHz

## FusA_(1043) Δ20 (FusA from P. atrosepticum SCRI1043 lacking the 20 amino-acid N-terminal signal sequence) (from UniProt Q6CZW5 21-704) (receptor)
  stoichiometry N: 1

Source: article PMC5095587
